We go through two variants from IntAct's records for PubMed 23559067.

B1: X-linked retinitis pigmentosa GTPase regulator (Homo sapiens), Q92834 (parent)
chain: MREPEELMPDSGAVFTFGKSKFAENNPGKFWFKNDVPVHLSCGDEHSAVVTGNNKLYMFGSNNWGQLGLGSKSAISKPTCVKALKPEKVKLAACGRNHTLVSTEGGNVYATGGNNEGQLGLGDTEERNTFHVISFFTSEHKIKQLSAGSNTSAALTEDGRLFMWGDNSEGQIGLKNVSNVCVPQQVTIGKPVSWISCGYYHSAFVTTDGELYVFGEPENGKLGLPNQLLGNHRTPQLVSEIPEKVIQVACGGEHTVVLTENAVYTFGLGQFGQLGLGTFLFETSEPKVIENIRDQTISYISCGENHTALITDIGLMYTFGDGRHGKLGLGLENFTNHFIPTLCSNFLRFIVKLVACGGCHMVVFAAPHRGVAKEIEFDEINDTCLSVATFLPYSSLTSGNVLQRTLSARMRRRERERSPDSFSMRRTLPPIEGTLGLSACFLPNSVFPRCSERNLQESVLSEQDLMQPEEPDYLLDEMTKEAEIDNSSTVESLGETTDILNMTHIMSLNSNEKSLKLSPVQKQKKQQTIGELTQDTALTENDDSDEYEEMSEMKEGKACKQHVSQGIFMTQPATTIEAFSDEEVGNDTGQVGPQADTDGEGLQKEVYRHENNNGVDQLDAKEIEKESDGGHSQKESEAEEIDSEKETKLAEIAGMKDLREREKSTKKMSPFFGNLPDRGMNTESEENKDFVKKRESCKQDVIFDSERESVEKPDSYMEGASESQQGIADGFQQPEAIEFSSGEKEDDEVETDQNIRYGRKLIEQGNEKETKPIISKSMAKYDFKCDRLSEIPEEKEGAEDSKGNGIEEQEVEANEENVKVHGGRKEKTEILSDDLTDKAEDHEFSKTEELKLEDVDEEINAENVESKKKTVGDDESVPTGYHSKTEGAERTNDDSSAETIEKKEKANLEERAICEYNENPKGYMLDDADSSSLEILENSETTPSKDMKKTKKIFLFKRVPSINQKIVKNNNEPLPEIKSIGDQIILKSDNKDADQNHMSQNHQNIPPTNTERRSKSCTIL
B2: Retinal rod rhodopsin-sensitive cGMP 3',5'-cyclic phosphodiesterase subunit delta (Homo sapiens), O43924 (parent)
chain: MSAKDERAREILRGFKLNWMNLRDAETGKILWQGTEDLSVPGVEHEARVPKKILKCKAVSRELNFSSTEQMEKFRLEQKVYFKGQCLEEWFFEFGFVIPNSTNTWQSLIEAAPESQMMPASVLTGNVIIETKFFDDDLLVSTSRVRLFYV
partner: B1 chain

The first assay covers variants of B1. Particulars: with pde6d_human PDE6D, O43924.
On to E216R, for which the “effect of a mutation on the interaction” value is “disrupting interaction”.

In another assay the parent is B2. Particulars: with rpgr_human RPGR, Q92834.
Consider R48E, for which the “effect of a mutation on the interaction” value was “disrupting interaction”.
